Assay [1] addresses ZV54^CHO (CHO cell-derived ZV54 mAb). Put plainly: SPR. Particulars: remark: other sources report otherwise.
Assay [2] concerns the target ZV54^ΔXF (ZV54 mAb expressed in glycoengineered ΔXF N. benthamiana plants). Put plainly: SPR. Particulars: remark: other sources report otherwise.

By Kd is commonly meant the concentration at which binding is half-saturated. A low value points to a tighter complex.

B1: recombinant human FcγRIIA ectodomain, P12318 34-217 (receptor)
chain: QAAAPPKAVLKLEPPWINVLQEDSVTLTCQGARSPESDSIQWFHNGNLIPTHTQPSYRFKANNNDSGEYTCQTGQTSLSDPVHLTVLSEWLVLQTPHLEFQEGETIMLRCHSWKDKPLVKVTFFQNGKSQKFSHLDPTFSIPQANHSHSGDYHCTGNIGYTLFSSKPVTITVQVPSMGSSSPMG
modifications: not checked
With B1, the Kd in assay [1] worked out at 0.662 µM; in assay [2], 1.89 µM.

The values are drawn from PMC10221487.
